Where two headings read alike, the source gives them in different places.
Tests used:
[1] = molecular target: T1, BAFF (PeproTech, Cat: 310-13) (UniProt Q9Y275 134-285); test: ELISA, BAFF coated at 1 ug/mL, anti-human Fc-HRP, OD450
Protocol: (§1) The capabilities of B613301, B613302, and B613303, which are fusion proteins of anifrolumab and TACI-BCMA, to bind to BAFF and APRIL were assessed by ELISA as follows: [0548] BAFF (PeproTech, Cat: 310-13) or ARPIL (Acro Biosystems, Cat: APL-H52D1) was diluted to 1 μg/mL with PBS, and a 96-well plate (Costar, Cat: 3590) was coated with the dilution overnight at 4° C. The plate was washed with PBST and blocked with Blocking Buffer (PBST containing 1% BSA) at 37° C. for 1 h. The plate was tapped. The test antibodies were diluted with Blocking Buffer. Incubation was performed at 37° C. for 1.5 h. The plate was washed with PBST. An HRP-mouse anti-human Fc antibody (GenScript, Cat: A01854-200) was diluted with Blocking Buffer. Incubation was performed at 37° C. for 40 min. The plate was washed with PBST. 100 μL of TMB substrate solution (Biopanda, Cat: TMB-S-003) was added, and color development was performed at 37° C. for 3 min. 100 μL of ELISA stop solution (Solarbio, Cat: C1058) was added. OD450 was measured.

[2] = molecular target: T2, APRIL (Acro Biosystems, Cat: APL-H52D1) (UniProt O75888 115-250, limits assumed); test: ELISA, APRIL coated at 1 ug/mL, anti-human Fc-HRP, OD450
T2 construct: also called ARPIL
T2 sequence (looked up): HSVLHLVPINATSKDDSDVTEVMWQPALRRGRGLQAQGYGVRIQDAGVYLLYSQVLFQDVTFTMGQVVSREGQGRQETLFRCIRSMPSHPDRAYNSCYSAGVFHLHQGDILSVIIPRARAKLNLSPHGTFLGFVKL
Protocol: as §1, with “TACI-BCMA” for “B613301, B613302, and B613303, which are”, “(B575701, B575702, B575703,” for “of anifrolumab”, “B575704)” for “TACI-BCMA,”, “follows:” for “follows: [0548]”
The capabilities of the 4 fusion proteins to bind to APRIL were all stronger than that of telitacicept, and their EC₅₀ values decreased to ¼ to ⅓ of that of telitacicept.

[3] = molecular target: T2, APRIL (Acro Biosystems, Cat: APL-H52D1); test: as above; remark: listed apart in the source
Protocol: as §1

[4] = molecular target: T1, BAFF (PeproTech, Cat: 310-13); test: ELISA, plate coated with BAFF 1 ug/mL, HRP anti-human Fc, OD450
Protocol: as §1, with “BAFF” for “The capabilities of B613301, B613302, and B613303, which are fusion proteins of anifrolumab and TACI-BCMA, to bind to BAFF and APRIL were assessed by ELISA as follows: [0548] BAFF”, “310-13)” for “310-13) or ARPIL (Acro Biosystems, Cat: APL-H52D1)”, “plate” for “plate (Costar, Cat: 3590)”

[5] = molecular target: T3, BAFF (Sino biological, 10056-HNCH) (UniProt Q9Y275 134-285, biotinylated in the blocking ELISA (site not stated)); test: competition ELISA: fusion protein pre-mixed with biotinylated BAFF, added to coated BAFF-R
T3 construct: also called BLyS
Protocol: The above TACI-Fc fusion proteins' function of blocking the binding of BAFF to BAFF-R was further assessed as follows: The receptor protein was diluted with a pH 7.4 PBS (BasalMedia, B320) buffer to 2 μg/mL, and the resulting dilution was added to a 96-well microplate (Corning, 3590) at 100 μL/well. The plate was incubated overnight at 4° C. After the liquid was discarded, 1% Casein blocking solution (Thermo, 37528) was added at 200 μL/well for blocking, and the plate was incubated at 37° C. for 2 h. After the blocking, the blocking solution was discarded, and the plate was washed 3 times with a PBST buffer (pH 7.4 PBS containing 0.1% tween-20) and set aside for later use. A biotinylated ligand protein at a fixed concentration was mixed with a serially diluted antibody or fusion protein, and the mixture was pre-incubated at 37° C. for 30 min and then added to the blocked microplate. The plate was incubated at 37° C. for 1.5 h. After the incubation, the plate was washed 3 times with PBST, and streptavidin-HRP (Invitrogen, 434323, diluted in a 1:4000 ratio) was added at 100 μL/well. The plate was incubated at 37° C. for 1 h. The supernatant was removed. […] The absorbance at 450 nm was measured using a microplate reader. Curves for the inhibition of the binding of the ligand to the receptor were fitted using software, and IC₅₀ values were calculated. […]

EC50 [1]: 0.801 nM
EC50 [2]: 0.711 nM
Emax [2]: 2.62
EC50 [3]: 1.25 nM
Emax [3]: 2.5
EC50 (read off the curve) [4]: ~0.4 nM
IC50 [5]: 27.5 nM
B1: Telitacicept (RCT-18) (Fc fusion)
chain: SRVDQEERFPQGLWTGVAMRSCPEEQYWDPLLGTCMSCKTICNHQSQRTCAAFCRSLSCRKEQGKFYDHLLRDCISCASICGQHPKQCAYFCENKLRSPVNLPPELDKTHTCPPCPAPEAEGAPSVFLFPPKPKDTLMISRTPEVTCVVVDVSHEDPEVKFNWYVDGVEVHNAKTKPREEQYNSTYRVVSVLTVLHQDWLNGKEYKCKVSNKALPSSIEKTISKAKGQPREPQVYTLPPSRDELTKNQVSLTCLVKGFYPSDIAVEWESNGQPENNYKTTPPVLDSDGSFFLYSKLTVDKSRWQQGNVFSCSVMHEALHNHYTQKSLSLSPGK
notes: Positive control TACI-Fc; also called RC18
